B1: cathepsin V (CTSV): N221Q (protein)
parent chain: MNLSLVLAAFCLGIASAVPKFDQNLDTKWYQWKATHRRLYGANEEGWRRAVWEKNMKMIELHNGEYSQGKHGFTMAMNAFGDMTNEEFRQMMGCFRNQKFRKGKVFREPLFLDLPKSVDWRKKGYVTPVKNQKQCGSCWAFSATGALEGQMFRKTGKLVSLSEQNLVDCSRPQGNQGCNGGFMARAFQYVKENGGLDSEESYPYVAVDEICKYRPENSVANDTGFTVVAPGKEKALMKAVATVGPISVAMDAGHSSFQFYKSGIYFEPDCSSKNLDHGVLVVGYGFEGANSNNSKYWLVKNSWGPEWGSNGYVKIAKDKNNHCGIATAASYPNV
B2: cathepsin V (CTSV): N292Q (protein)
parent chain: MNLSLVLAAFCLGIASAVPKFDQNLDTKWYQWKATHRRLYGANEEGWRRAVWEKNMKMIELHNGEYSQGKHGFTMAMNAFGDMTNEEFRQMMGCFRNQKFRKGKVFREPLFLDLPKSVDWRKKGYVTPVKNQKQCGSCWAFSATGALEGQMFRKTGKLVSLSEQNLVDCSRPQGNQGCNGGFMARAFQYVKENGGLDSEESYPYVAVDEICKYRPENSVANDTGFTVVAPGKEKALMKAVATVGPISVAMDAGHSSFQFYKSGIYFEPDCSSKNLDHGVLVVGYGFEGANSNNSKYWLVKNSWGPEWGSNGYVKIAKDKNNHCGIATAASYPNV
B3: cathepsin V (CTSV): 2NQ (protein)
parent chain: MNLSLVLAAFCLGIASAVPKFDQNLDTKWYQWKATHRRLYGANEEGWRRAVWEKNMKMIELHNGEYSQGKHGFTMAMNAFGDMTNEEFRQMMGCFRNQKFRKGKVFREPLFLDLPKSVDWRKKGYVTPVKNQKQCGSCWAFSATGALEGQMFRKTGKLVSLSEQNLVDCSRPQGNQGCNGGFMARAFQYVKENGGLDSEESYPYVAVDEICKYRPENSVANDTGFTVVAPGKEKALMKAVATVGPISVAMDAGHSSFQFYKSGIYFEPDCSSKNLDHGVLVVGYGFEGANSNNSKYWLVKNSWGPEWGSNGYVKIAKDKNNHCGIATAASYPNV

Assay: Western blot of supernatant and whole cell lysate, A549
Settings: glycan lost; control: wild type CTSV

expression_or_secretion, decreases:
B1
B2
B3
